Experimental data published in patent publication US10428140B2, “Anti-EphA4 antibody” (EISAI R&D MANAGEMENT CO., LTD., priority 2015, dated 2019).
Residue numbers refer to the chain shown, from its start.

T1: human EphA1 (Homo sapiens, UniProt P21709)
T1 construct: a protein of the extracellular region of each human Eph receptor fused with the SEAP protein and the His tag; made in house; host or cells: Expi293F cells (culture supernatant)
T1 sequence (P21709 26-547 limits assumed): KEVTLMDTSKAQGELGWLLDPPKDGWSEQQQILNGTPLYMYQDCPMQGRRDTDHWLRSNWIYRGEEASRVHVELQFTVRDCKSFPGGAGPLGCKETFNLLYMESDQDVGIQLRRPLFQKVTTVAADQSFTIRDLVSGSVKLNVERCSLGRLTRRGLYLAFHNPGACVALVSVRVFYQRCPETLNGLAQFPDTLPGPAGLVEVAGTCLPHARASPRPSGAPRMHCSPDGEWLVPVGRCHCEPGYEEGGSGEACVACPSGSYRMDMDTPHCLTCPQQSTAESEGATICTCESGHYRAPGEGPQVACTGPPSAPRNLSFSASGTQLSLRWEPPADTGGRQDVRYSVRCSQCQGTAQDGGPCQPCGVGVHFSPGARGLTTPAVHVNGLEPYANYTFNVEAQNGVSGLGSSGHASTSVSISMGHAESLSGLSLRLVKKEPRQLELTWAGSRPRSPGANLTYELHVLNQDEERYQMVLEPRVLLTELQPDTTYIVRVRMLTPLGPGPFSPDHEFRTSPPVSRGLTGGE

T2: human EphA6 (Homo sapiens, UniProt Q9UF33)
T2 construct: a protein of the extracellular region of each human Eph receptor fused with the SEAP protein and the His tag; made in house; host or cells: Expi293F cells (culture supernatant)
T2 sequence (Q9UF33 23-550 limits assumed): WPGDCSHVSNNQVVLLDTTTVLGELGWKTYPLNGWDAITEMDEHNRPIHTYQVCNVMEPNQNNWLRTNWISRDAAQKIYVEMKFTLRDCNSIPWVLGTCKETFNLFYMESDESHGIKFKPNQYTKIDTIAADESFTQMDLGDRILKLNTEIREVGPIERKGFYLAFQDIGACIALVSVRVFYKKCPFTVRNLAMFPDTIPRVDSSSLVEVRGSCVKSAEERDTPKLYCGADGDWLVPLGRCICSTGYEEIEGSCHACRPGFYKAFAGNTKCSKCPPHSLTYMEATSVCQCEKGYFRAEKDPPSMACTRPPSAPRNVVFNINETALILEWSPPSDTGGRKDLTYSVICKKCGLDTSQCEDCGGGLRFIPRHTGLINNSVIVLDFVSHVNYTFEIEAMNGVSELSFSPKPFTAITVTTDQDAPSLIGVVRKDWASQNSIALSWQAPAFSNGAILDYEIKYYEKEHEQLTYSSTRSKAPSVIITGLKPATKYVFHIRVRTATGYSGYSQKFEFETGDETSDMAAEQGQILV

T3: human EphA10 (Homo sapiens, UniProt Q5JZY3)
T3 construct: a protein of the extracellular region of each human Eph receptor fused with the SEAP protein and the His tag; made in house; host or cells: Expi293F cells (culture supernatant)
T3 sequence (Q5JZY3 34-565 limits assumed): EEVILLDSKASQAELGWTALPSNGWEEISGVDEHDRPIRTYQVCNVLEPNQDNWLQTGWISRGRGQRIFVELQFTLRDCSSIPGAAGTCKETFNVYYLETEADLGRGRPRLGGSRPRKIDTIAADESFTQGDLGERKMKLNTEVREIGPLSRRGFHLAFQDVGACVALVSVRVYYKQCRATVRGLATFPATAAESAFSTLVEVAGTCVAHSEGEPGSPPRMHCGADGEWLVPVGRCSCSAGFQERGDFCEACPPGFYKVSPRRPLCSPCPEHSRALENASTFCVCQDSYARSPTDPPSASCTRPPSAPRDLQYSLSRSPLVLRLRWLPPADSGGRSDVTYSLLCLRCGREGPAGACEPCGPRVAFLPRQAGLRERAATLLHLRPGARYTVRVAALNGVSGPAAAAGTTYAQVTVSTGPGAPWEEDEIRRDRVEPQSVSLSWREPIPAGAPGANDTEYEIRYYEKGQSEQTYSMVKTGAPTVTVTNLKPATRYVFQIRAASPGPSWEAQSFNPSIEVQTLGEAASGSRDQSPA

B1: 88 (antibody, V domains shown)
VL: DIQMTQSPSSLSASVGDRVTITCRASENIYRNLAWYQQKPGKAPQLLLYAATNLADGVPSRFSGSGSGTDYTLTISSLQPEDFATYYCQHFWGTPWTFGQGTKVEIK
VH: QVQLVQSGSELKKPGASVKVSCKASGYTFTDYSMHWVRQAPGQGLKWMGWINTETGEPTYAQGFTGRFVFSLDTSVSTAYLQISSLKAEDTAVYYCARIPLYYYGSRYWYFDVWGQGTTVTVSS
modifications: constant regions without entry; synthetic humanized antibody light chain variable region sequence; synthetic humanized antibody heavy chain variable region sequence
B2: 91 (antibody, V domains shown)
VL: B1 VL
VH: B1 VH with Q62D, G63D, T65K
modifications: constant regions without entry; synthetic humanized antibody light chain variable region sequence; synthetic humanized antibody heavy chain variable region sequence
B3: 90 (antibody, V domains shown)
VL: B1 VL
VH: B1 VH with K46E, Q62D, G63D, T65K
modifications: constant regions without entry; synthetic humanized antibody light chain variable region sequence; synthetic humanized antibody heavy chain variable region sequence
B4: 89 (antibody, V domains shown)
VL: B1 VL
VH: B1 VH with V2I
modifications: constant regions without entry; synthetic humanized antibody light chain variable region sequence; synthetic humanized antibody heavy chain variable region sequence
B5: 71 (antibody, V domains shown)
VH: B1 VH with V2I
VL: EIVMTQSPATLSVSPGERATLSCRASENIYRNLAWYQQKPGQSPRLLIYAATNLADGIPARFSGSGSGTEYTLTISSLQSEDFAVYYCQHFWGTPWTFGQGTKVEIK
modifications: synthetic humanized antibody heavy chain variable region sequence; synthetic humanized antibody light chain variable region sequence
B6: 92 (antibody, V domains shown)
VL: B1 VL
VH: B1 VH with V2I, Q62D, G63D, T65K
modifications: constant regions without entry; synthetic humanized antibody light chain variable region sequence; synthetic humanized antibody heavy chain variable region sequence
B7: 94 (antibody, V domains shown)
VL: B5 VL
VH: B1 VH
modifications: constant regions without entry; synthetic humanized antibody light chain variable region sequence; synthetic humanized antibody heavy chain variable region sequence
B8: 93 (antibody, V domains shown)
VL: B5 VL
VH: B1 VH with K46E
modifications: constant regions without entry; synthetic humanized antibody light chain variable region sequence; synthetic humanized antibody heavy chain variable region sequence

target: T1, human EphA1; experiment: Selectivity ELISA of humanized antibodies for human Eph receptor; assay type: binding; details: coated protein 1 nM
Source text: (§1) According to the method described in Example 7, a DNA sequence encoding the signal sequence and the extracellular region of each human Eph receptor (EphA1, EphA2, EphA3, EphA4, EphA5, EphA6, EphA7, EphA8, EphA10, EphB1, EphB2, EphB3, EphB4, and EphB6) was amplified by RT-PCR using tissue-derived total RNA and cloned into a pENTR1A vector (Invitrogen/Life Technologies) having a DNA sequence encoding SEAP protein and histidine tag. Next, the DNA sequence encoding the signal sequence and the extracellular region of each human Eph receptor, SEAP protein, and histidine tag was transferred to a pcDNA3.1_rfcB vector through LR reaction using Gateway System (Invitrogen/Life Technologies) to construct a vector for the expression of a protein of the extracellular region of each human Eph receptor fused with the SEAP protein and the His tag (referred to as “Eph receptor extracellular region-SEAP-His protein”) (this vector is referred to as “Eph receptor extracellular region-SEAP-His protein expression vector”).
(§2) Next, each human Eph receptor extracellular region-SEAP-His protein expression vector was transferred to Expi293F cells (Gibco/Thermo Fisher Scientific) using Expi293 expression system (Gibco/Thermo Fisher Scientific). After incubation (5% CO2, 37° C.) for 5 days, the culture supernatant was recovered and centrifuged at 1500 rpm at room temperature for 5 minutes. The centrifugation supernatant was filtered through a 0.45-μm filter (Merck Millipore).
(§3) Each anti-EphA4 monoclonal humanized antibody obtained in Example 16 was evaluated for its binding activity against each human Eph receptor according to the following steps.
(§4) Each well of a 96-well plate (Nunc) was coated with a rabbit anti-6-His antibody (Bethyl Laboratories). Each well was […] After washing with 0.05% Tween 20/PBS (Nacalai Tesque) three times, the SEAP-His protein of human EphA1, EphA2, EphA3, EphA4, EphA5, EphA6, EphA7, EphA8, EphA10, EphB1, EphB2, EphB3, EphB4, or EphB6 was added (final concentration: 1 nM) to each well and incubated at room temperature for 1 hour. After washing three times, the humanized antibody was added to each well and incubated at room temperature for 1 hour. After washing three times, a horseradish peroxidase-labeled donkey […] IgG antibody (Jackson ImmunoResearch Laboratories) was added thereto and incubated at room temperature for 1 hour. After washing three times, TMB Microwell Peroxidase Substrate System (Kirkegaard & Perry Laboratories (KPL)) was added to each well. After confirmation of moderate color development, an equal amount of a reaction stopping solution (1N H2SO4, Wako Pure Chemical Industries) was added to each well. The absorbance at 450 nm was read using a microplate reader (Thermo Fisher Scientific).

Molecule	hEphA1-SEAP-: absorbance at 450 nm, percentage with respect to hEphA4-SEAP-His as 100% [%]
B1	5.8
B2	5.8
B3	5.1
B4	5.5
B5	5.6
B6	7.0
B7	6.5
B8	5.0

target: T2, human EphA6; experiment: as above; assay type: binding; details: coated protein 1 nM
Source text: as §1, §2, §3, §4

Molecule	hEphA6-SEAP-: absorbance at 450 nm, percentage with respect to hEphA4-SEAP-His as 100% [%]
B1	7.5
B2	8.8
B3	7.6
B4	8.4
B5	9.2
B6	9.6
B7	8.6
B8	7.1

target: T3, human EphA10; experiment: as above; assay type: binding; details: coated protein 1 nM
Source text: as §1, §2, §3, §4

Molecule	hEphA10-SEAP-: absorbance at 450 nm, percentage with respect to hEphA4-SEAP-His as 100% [%]
B1	5.8
B2	8.5
B3	5.1
B4	5.7
B5	5.3
B6	6.6
B7	6.4
B8	4.9
